{
  "source": "patent US12007398",
  "binders": {"B1": {"name": "purified anti-CD3 homodimer (product-related impurity isolated from the αCD20/αCD3 TDB purification process) (antibody, V domains shown)", "VH": "EVQLVQSGAEVKKPGASVKVSCKASGYTFTNYYIHWVRQAPGQGLEWIGWIYPGDGNTKYNEKFKGRATLTADTSTSTAYLELSSLRSEDTAVYYCARDSYSNYYFDYWGQGTLVTVSS", "VL": "DIVMTQSPDSLAVSLGERATINCKSSQSLLNSRTRKNYLAWYQQKPGQPPKLLIYWASTRESGVPDRFSGSGSGTDFTLTISSLQAEDVAVYYCTQSFILRTFGQGTKVEIK"}, "B2": {"name": "αCD20/αCD3 TDB (T cell dependent bispecific antibody; anti-CD20 Mab2 / anti-CD3 Mab1) (bispecific antibody, V domains shown)", "VH 1": "EVQLVESGGGLVQPGGSLRLSCAASGYTFTSYNMHWVRQAPGKGLEWVGAIYPGNGDTSYNQKFKGRFTISVDKSKNTLYLQMNSLRAEDTAVYYCARVVYYSNSYWYFDVWGQGTLVTVSS", "VL 1": "DIQMTQSPSSLSASVGDRVTITCRASSSVSYMHWYQQKPGKAPKPLIYAPSNLASGVPSRFSGSGSGTDFTLTISSLQPEDFATYYCQQWSFNPPTFGQGTKVEIKR", "VH 2": "B1 VH", "VL 2": "B1 VL"}},
  "key": {"[1]": {"molecular_target": "T1, CD3e subunit of the T cell receptor on human T cells (human, UniProt P07766 23-207)", "T1 sequence (P07766 23-207)": "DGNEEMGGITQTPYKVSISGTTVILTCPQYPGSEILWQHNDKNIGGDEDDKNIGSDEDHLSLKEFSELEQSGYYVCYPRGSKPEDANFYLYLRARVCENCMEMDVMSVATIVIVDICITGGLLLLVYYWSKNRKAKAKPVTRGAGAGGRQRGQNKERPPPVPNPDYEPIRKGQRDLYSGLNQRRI", "experiment": "cell-based or functional assay"}, "[2]": {"molecular_target": "T1, CD3e subunit of the T cell receptor on …", "experiment": "cell-based or functional assay", "remark": "listed apart in the source"}},
  "data": [
    {"binder": "B1", "values": [
      {"measurement": "EC50 of NFκB-luciferase reporter activation, Jurkat/NFκBLuc cells; in absence of target cells", "setting": "[1]", "result": 0.21, "unit": "µg/mL"},
      {"measurement": "EC50 of T cell activation (CD69+/CD25+), human PBMC Donor 1; column head: in absence of target cells", "setting": "[1]", "result": 0.526, "unit": "µg/mL"},
      {"measurement": "EC50 of T cell activation (CD69+/CD25+), human PBMC Donor 2; column head: in absence of target cells", "setting": "[1]", "result": 0.169, "unit": "µg/mL"}
    ]},
    {"binder": "B2", "values": [
      {"measurement": "EC50 of NFκB-luciferase reporter activation, Jurkat/NFκBLuc cells; in presence of target cells", "setting": "[1]", "result": 0.0013, "unit": "µg/mL"},
      {"measurement": "EC50 of T cell activation (CD69+/CD25+), human PBMC Donor 1; in presence of target cells", "setting": "[1]", "result": 0.0055, "unit": "µg/mL"},
      {"measurement": "EC50 of T cell activation (CD69+/CD25+), human PBMC Donor 2; in presence of target cells", "setting": "[1]", "result": 0.0044, "unit": "µg/mL"},
      {"measurement": "luciferase activity of Jurkat/NFκBLuciferase clone 2 in the presence of a CD20 expressing target cell line, relative to anti-CD3 homodimer", "setting": "[2]", "result": 1000, "unit": "fold"}
    ]}
  ]
}
